For data set [1], the target named is T1, recombinant human involucrin, P07476.
T1 chain: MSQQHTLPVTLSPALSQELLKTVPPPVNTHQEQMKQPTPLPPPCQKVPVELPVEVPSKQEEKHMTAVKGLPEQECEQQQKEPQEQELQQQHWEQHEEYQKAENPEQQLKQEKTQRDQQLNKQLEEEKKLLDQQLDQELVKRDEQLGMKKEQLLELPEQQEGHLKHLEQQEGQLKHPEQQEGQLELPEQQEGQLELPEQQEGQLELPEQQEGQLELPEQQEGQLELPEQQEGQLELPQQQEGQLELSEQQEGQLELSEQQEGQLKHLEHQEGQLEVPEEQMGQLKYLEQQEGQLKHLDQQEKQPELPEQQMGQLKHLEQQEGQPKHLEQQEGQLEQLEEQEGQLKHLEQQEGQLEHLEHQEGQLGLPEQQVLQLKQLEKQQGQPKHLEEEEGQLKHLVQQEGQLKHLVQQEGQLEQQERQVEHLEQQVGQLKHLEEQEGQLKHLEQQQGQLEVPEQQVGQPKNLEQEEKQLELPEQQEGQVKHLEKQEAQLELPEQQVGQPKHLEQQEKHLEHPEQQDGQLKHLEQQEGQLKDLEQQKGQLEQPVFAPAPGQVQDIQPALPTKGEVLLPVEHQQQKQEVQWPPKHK

Data set [2] has as its target recombinant human small proline rich protein 2 (SPR2).
Data set [3] concerns the target succinylated casein.
Data set [4] concerns the target T2, recombinant full-length human transglutaminase 1 (TGase 1) enzyme (human, UniProt P22735 1-817, constitutively N-myristoylated and S-myristoylated or S-palmitoylated on its amino-terminal 10 kDa portion).
T2 construct: also called TGase I; TGAaseI
T2 sequence (looked up): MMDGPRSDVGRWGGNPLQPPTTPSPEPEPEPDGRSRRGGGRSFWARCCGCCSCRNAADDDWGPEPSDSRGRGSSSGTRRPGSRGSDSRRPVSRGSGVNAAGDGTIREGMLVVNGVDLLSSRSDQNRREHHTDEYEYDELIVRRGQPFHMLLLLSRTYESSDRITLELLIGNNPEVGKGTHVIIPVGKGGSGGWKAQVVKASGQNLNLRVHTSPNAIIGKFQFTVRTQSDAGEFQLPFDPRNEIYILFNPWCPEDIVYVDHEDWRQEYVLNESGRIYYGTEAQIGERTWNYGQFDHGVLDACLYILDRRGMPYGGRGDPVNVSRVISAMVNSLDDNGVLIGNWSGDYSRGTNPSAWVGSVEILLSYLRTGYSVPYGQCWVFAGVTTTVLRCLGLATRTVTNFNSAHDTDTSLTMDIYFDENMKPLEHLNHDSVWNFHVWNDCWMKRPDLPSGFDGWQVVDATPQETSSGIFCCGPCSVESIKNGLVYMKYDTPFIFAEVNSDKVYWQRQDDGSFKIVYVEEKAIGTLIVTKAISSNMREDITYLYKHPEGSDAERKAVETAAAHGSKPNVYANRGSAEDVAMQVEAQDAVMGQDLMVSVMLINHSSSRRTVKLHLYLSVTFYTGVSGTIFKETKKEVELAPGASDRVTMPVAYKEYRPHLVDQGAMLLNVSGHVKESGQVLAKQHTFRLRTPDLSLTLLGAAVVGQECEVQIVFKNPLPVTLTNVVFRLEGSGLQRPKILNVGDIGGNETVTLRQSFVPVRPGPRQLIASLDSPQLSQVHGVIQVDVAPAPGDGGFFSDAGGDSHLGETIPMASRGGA
Nature of the data set: 14C-putrescine labelling of involucrin Gln residues by TGase 1, tryptic peptide sequencing. Here is the method: In this first set of experiments, the Gln residues of involucrin that were cross-linked by recombinant TGase 1 were analyzed in the absence of natural insect cell membranes and SLV. ¹⁴C-putrescine incorporation into involucrin was analyzed following trypsin digestion and separation of tryptic peptides on a C18 reverse phase HPLC column. Labeled peptide peaks were dried and identified by sequencing. The PTH derivative of (-glutamylputrescine isopeptide formed in the TGase reaction was identified as a distinct peak in the Porton LP 3000 gas-phase sequencer. (FIG. 7). A total of 40 tryptic peptides were reliably separated, of which 29 (arrows) were labeled by ¹⁴C-putrescine in a reaction with solubilized recombinant TGase 1 and involucrin. (FIG. 8A). Sequencing identified […] labeled Gln residues (Table 2, panel A), with a total of about 20 mol of putrescine incorporated/mol of involucrin (Table 2, panel A). In contrast to the 29 Gln residues found to be involved in the binding of involucrin to soluble TGase 1 in the experiments above, membrane-bound TGase 1 binds to involucrin through five specific Gln residues, as discussed in the following section.

B1: recombinant full-length human transglutaminase 1 (TGase 1) enzyme (protein)
chain: MMDGPRSDVGRWGGNPLQPPTTPSPEPEPEPDGRSRRGGGRSFWARCCGCCSCRNAADDDWGPEPSDSRGRGSSSGTRRPGSRGSDSRRPVSRGSGVNAAGDGTIREGMLVVNGVDLLSSRSDQNRREHHTDEYEYDELIVRRGQPFHMLLLLSRTYESSDRITLELLIGNNPEVGKGTHVIIPVGKGGSGGWKAQVVKASGQNLNLRVHTSPNAIIGKFQFTVRTQSDAGEFQLPFDPRNEIYILFNPWCPEDIVYVDHEDWRQEYVLNESGRIYYGTEAQIGERTWNYGQFDHGVLDACLYILDRRGMPYGGRGDPVNVSRVISAMVNSLDDNGVLIGNWSGDYSRGTNPSAWVGSVEILLSYLRTGYSVPYGQCWVFAGVTTTVLRCLGLATRTVTNFNSAHDTDTSLTMDIYFDENMKPLEHLNHDSVWNFHVWNDCWMKRPDLPSGFDGWQVVDATPQETSSGIFCCGPCSVESIKNGLVYMKYDTPFIFAEVNSDKVYWQRQDDGSFKIVYVEEKAIGTLIVTKAISSNMREDITYLYKHPEGSDAERKAVETAAAHGSKPNVYANRGSAEDVAMQVEAQDAVMGQDLMVSVMLINHSSSRRTVKLHLYLSVTFYTGVSGTIFKETKKEVELAPGASDRVTMPVAYKEYRPHLVDQGAMLLNVSGHVKESGQVLAKQHTFRLRTPDLSLTLLGAAVVGQECEVQIVFKNPLPVTLTNVVFRLEGSGLQRPKILNVGDIGGNETVTLRQSFVPVRPGPRQLIASLDSPQLSQVHGVIQVDVAPAPGDGGFFSDAGGDSHLGETIPMASRGGA
Consider B1, for which, in data set [1], the KM(app) of the protein substrate; 14C-putrescine incorporation by SLV-bound TGase 1 (15% PS) stood at 2.9 µM; the KM(app) of the protein substrate; 14C-putrescine incorporation by solubilized TGase 1 was 114 µM; the “fold decrease of KM, SLV with 15% PS against solubilized TGase 1 and soluble involucrin” value is reported as “an approximately 40-fold decreased KM”; the “kinetic parameters for involucrin as substrate, SLV-bound TGase 1 (0% PS)” value is listed as “The kinetic parameters for involucrin as a substrate were immeasurably low when the SLV were formulated in the absence of PS”. In data set [2], the KM(app) of the protein substrate; 14C-putrescine incorporation by SLV-bound TGase 1 (0% PS) worked out at 25.3 µM, the KM(app) of the protein substrate; 14C-putrescine incorporation by SLV-bound TGase 1 (15% PS) came out at 22.8 µM, the KM(app) of the protein substrate; 14C-putrescine incorporation by solubilized TGase 1 was determined as 13.2 µM and the “fold increase of KM after attachment of TGase 1 to SLV (0 or 15% PS)” value was “differed only by about a two-fold increase in KM if the PS content of SLV was 0 or 15%”. Also, in data set [3], the KM(app) of the protein substrate; 14C-putrescine incorporation by SLV-bound TGase 1 (0% PS) came to 138 µM, the KM(app) of the protein substrate; 14C-putrescine incorporation by SLV-bound TGase 1 (15% PS) turned out to be 145 µM and the KM(app) of the protein substrate; 14C-putrescine incorporation by solubilized TGase 1 is 61.4 µM.

B2: recombinant human involucrin (other, UniProt P07476 1-585, looked up)
chain: MSQQHTLPVTLSPALSQELLKTVPPPVNTHQEQMKQPTPLPPPCQKVPVELPVEVPSKQEEKHMTAVKGLPEQECEQQQKEPQEQELQQQHWEQHEEYQKAENPEQQLKQEKTQRDQQLNKQLEEEKKLLDQQLDQELVKRDEQLGMKKEQLLELPEQQEGHLKHLEQQEGQLKHPEQQEGQLELPEQQEGQLELPEQQEGQLELPEQQEGQLELPEQQEGQLELPEQQEGQLELPQQQEGQLELSEQQEGQLELSEQQEGQLKHLEHQEGQLEVPEEQMGQLKYLEQQEGQLKHLDQQEKQPELPEQQMGQLKHLEQQEGQPKHLEQQEGQLEQLEEQEGQLKHLEQQEGQLEHLEHQEGQLGLPEQQVLQLKQLEKQQGQPKHLEEEEGQLKHLVQQEGQLKHLVQQEGQLEQQERQVEHLEQQVGQLKHLEEQEGQLKHLEQQQGQLEVPEQQVGQPKNLEQEEKQLELPEQQEGQVKHLEKQEAQLELPEQQVGQPKHLEQQEKHLEHPEQQDGQLKHLEQQEGQLKDLEQQKGQLEQPVFAPAPGQVQDIQPALPTKGEVLLPVEHQQQKQEVQWPPKHK
notes: Substrate of TGase 1
For the molecule B2, the binding result in data set [4] is listed as “binds”.

Source of the values: patent publication US20030072795A1 (US Dept. of Health and Human Services, published 2003).
